Test results: the nanobody polyreactivity screen of Harvey et al. (2022)

Experiment: yeast display, Sf9 membrane polyspecificity reagent, FACS + sequencing; frameworks hold sequencing errors
Summary of the method: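 In a synthetic yeast display library (Saccharomyces cerevisiae BJ5465), nanobody expression was induced with galactose for 36–48 hours. FACS gates were set low and high (top ~1%) using anti-HA fluorescence for expression and streptavidin fluorescence for binding of the Sf9 membrane reagent. Each polyreactivity label is drawn from the gate of origin.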

QVQLVESGGGLVQAGGSLRLSCAASGSIFWPNAMGWYRQAPGKERELVAAIRRSGGSTYYADSVKGRFTISRDNAKNTVYLQMNSLKPEDTAVYYCAARADLHRRVRNIYYSWGQGTQVTVSS
polyreactivity (PSR sort gate): low polyreactivity

QVQLVESGGGLVQAGGSLRLSCAASGSIFFSYAMGWYRQAPGKERELVAAISSGGSTYYADSVKGRFTISRDNAKNTVYLQMNSLKPEDTAVYYCAARGYRLVPVDFYYWGQGTQVTVSS
polyreactivity (PSR sort gate): low polyreactivity

QVQLVESGGGLVQAGGSLRISCAASGITFRYYTMGWYRQAPGKERELVAAINYRGGRTYYADSVKGRFTISRDNAKNTVYLQMNSLKPEDTAVYYCNTARVSRLGWSTTSDSWGQGTQVTVSS
polyreactivity (PSR sort gate): high polyreactivity

QVQVGESGGGLVQAGGSLSLSCAASGSIFPANAMGWYRQAPGKERELVAAITRGGRTYYADSVKGIFTISRDNAKNCVYLQMNSLKPEDTAVYDCAAYVLSKREYYRYDYWGQGTQVTVSS
polyreactivity (PSR sort gate): high polyreactivity

QVQLVESGGGLVQAGGSLRLSCAASGRTFGRNAMGWYRQAPGKERELVAAISYGGGSTYYADSVKGRFTISRDNAKNTVYLQMNSLKPEDTAVYYCAAPTDDSSLGVYKHGYWGQCTQVTVSS
polyreactivity (PSR sort gate): low polyreactivity

QVQLVESGGGLVQAGGSLRLICAASGRTFWDYAMGWYRQAPGKERELVAAITASGTRTYYADSVKGRFTISRDNAKNTVFLQMNSLKPEDTAVYYCAAARIWWAHAYPTYVANDYWGQGTQVTVSS
polyreactivity (PSR sort gate): high polyreactivity

QVQLVESGGGLVQAGGSLRLSCAASGRTFAINAMGWSRQAPGKEWELVASIRWTDGTTYYADSVKGRFTISRDNAKNTVYLQMNSLKPEDTAVYYCAADAEGSASKYDYWGQGTQVTVSS
polyreactivity (PSR sort gate): low polyreactivity

QVQLVESGGGLVQAGGSLRLSCAASGSTFQGNAMGWYRQAPGKERELVAAISSDGSTDYADSVKGRFTISRDNAKNTVYLQMNSLKPEDTAVYYCNRVSPGPDADLEFDYWGQGTQVTVSS
polyreactivity (PSR sort gate): low polyreactivity

QVQLVESGGGLVQAGGSLRLSCAASGRTFGRYTMGWYRQAPGKERELVADITSGWSTYADSVKGRFTISRDNAKNSVYLQMNSLKPEDTAVYYCNADRTYPEPAEYYYWGQGTQVTVSS
polyreactivity (PSR sort gate): low polyreactivity

QVQLVESGGGLVQAGGSLRLSCADSGSTFRPYAMGWNRQAPGKERELVAAISSGDSTYYADSVKGRFTISRDNAKNTVYLQMNSLKPEDTAVYYCAKRKYWHRGGGYWGQGTQVTVSS
polyreactivity (PSR sort gate): high polyreactivity

QVQLQESGGGLVQAGGSLRLSCAASGYISHADEMGWYRQAPGKEHELVASISNGGSTNYADSVKGRFTISRDNAKNTVYLQMNSLKSEDTAVYYCAAWTGQVDIHYYWGQGTQETVSS
polyreactivity (PSR sort gate): low polyreactivity

QVQLVESGGGLVQAGGSLRLSCAASGFTIYRYAMGWYRQAPGKERELVAAITGGGGSTYYADSVKGRFTISRDNAKNTVYLQMNSLKPEVTAVYYCAVDVYHKGQYRWSYGYWGQGTQVTVSS
polyreactivity (PSR sort gate): low polyreactivity

QVQLVESGGGLVQAGGSLRLSCAASGSTFSTNAMGWYRQAPGKERELVARISAGRTNYADSVKGRFTISRDNAKNTVYLQMNSLKPEDTAVYYCNADYQYNRYSRVVGGHYYWGQGTQVTVSS
polyreactivity (PSR sort gate): low polyreactivity

QVQLVESGGGLVQAGGSLRLSCAASGSIFSYYALGWYRQAPGKERELVAAISYSGGTTYYADSVKGRFTISRDNAKNTVYLQMNSLKPEDTAVYYCAAQWWWNRPVRYEYWGQGTQVTVSS
polyreactivity (PSR sort gate): low polyreactivity

QFQLVESGGGLVQAGGTLRLSCAPSGFTFTLNPLGWYRQAPGKERQLVATIDWSGTSTYYADSVKGRFRISRDKAKNTFYLQMNCMKPVDTAVYYCARVYQGYPGFYDGEYWGQGNQVTVSS
polyreactivity (PSR sort gate): low polyreactivity

QVQLVESGGGLVQAGGSLRLSCAASGNIFPYYAMGWYRQAPGKERELVAVISYGGGNTRYADSVKGRFTISRDNAKNTVYLQMNSLIPEDTAVYYCAARRWGAAPRPYEGYYWGQGSQVTVSS
polyreactivity (PSR sort gate): low polyreactivity

QVQLVESGGGLVQAGGSLRLSCAASGSTFGPYAMGWYRQAPGKEREFVAGISKSTSSTYYADSVKGRFTISRDNAKNTVYLQMNSLKPEDTAVYYCAAQGGRNRGYRYYWGQGTQVTVSS
polyreactivity (PSR sort gate): high polyreactivity

QVQLVESGGGLVQAGGSLRLSCAASGSTFVYNAMGSYRQAPGKEREFVAAISGSGGSTYYADSVKGRFTISRDNAKNTVYLQMNSLKPEDTAVYYCATAGRYGLYRTYPYRSKYDYWGQGTQVTVSS
polyreactivity (PSR sort gate): high polyreactivity

QVQLVESGGGLVQAGGSLRLSCAASGFTFRRNAMGWYRQAPGKERELVAAINVRDGSTYYADSVKGRFTISRDNAKNTVYLQMNSLKPEDTAVYYCAAEFFQGYYWYYYWGQGTQVTVSS
polyreactivity (PSR sort gate): high polyreactivity

QVQLVESGGGLVQAGGSLRLSCAAFGSIFGYNAMGSYRQAPGKEREFVAAISWSGGRTYYADSVKGRFTISRDNAKNTVYLQMNSLKPEDTAVYYCAAPSRPAPRFDYWGQGTQVTVSS
polyreactivity (PSR sort gate): low polyreactivity

QVQLVESGGGLVQAGGSLRLSCAASGYIFDRYAMGWYRQAPGKERELVATITRRGGSTYYADSVKGRFTISRDNAKNTVYLQMNSLKPEDSAVYYCAKRSPGTYIAMGYWGQGTQVTVSS
polyreactivity (PSR sort gate): high polyreactivity

QVQLVESGGGLVQAGGSLRLSCAASGRTFYAYVMGWYRQAPGKERELVAAISGGGRTYYADSVKGRFTISRDNAKNTVYLQMNSLKPEDTAVYYCAAVSLWYSAYEYWGQGTQVTVSS
polyreactivity (PSR sort gate): high polyreactivity

QVQLVESGGGLVQAGGRLRLSCAASGSNFYENAMVWYRQAPGKERELVADITNSGGSTYYADSVKGRFTISRDNAKNTVYLQMNSLIPEDTAVFYFATDVGYFYTVVGGYDYWGQGTQVTVSS
polyreactivity (PSR sort gate): low polyreactivity

QVQLVESGGGLVQAGGSLRLSCAASGYTFRYYAMGWYRQAPGKERELVARITGRAGSTYYADSVKGRFTISRDNAKNTVYLQMNSLKPEDTAVYYCAAQPAHPRRYDYWGQGTQVTVSS
polyreactivity (PSR sort gate): high polyreactivity

QVQLVESGGGLVQAGGSLRLSCAASGRIFAHYEMGWYRQAPGKERELVAAISSGGSTYYADSVKGRFTISRDNAKNTVYLQMNSLKPEDTAVYYCNKRPVRRKYDYWGQGTQVTVSS
polyreactivity (PSR sort gate): low polyreactivity

QVQLVESGGGLVQAGGSLRLSCAASGFTFWRNTMGWYRQEPGKERELVAGISGSGGSTYYADSVKGRFTSSRDNAKNTVYLQMNSLKPEDTAVYYCAKEPNVGTWRRWRYNYCGQGTQVTVSS
polyreactivity (PSR sort gate): high polyreactivity

QVQLVESGGGLVQAGGSLRLSCAASGSIFVGTAMGWYRQAPGKERELVADINSGGSTNYADSVKGRVTISRDNAKNTVYLQMNSLKPEDTAVSYCAKSAVSGTYDYWGQGTQVTVSS
polyreactivity (PSR sort gate): low polyreactivity

QVQLVESGGGLVQAGGSLRLSCAASGRTFYRNPMGWYRQAPAKERELVAANSWSGGRTFYADSVKGRFTISRDNAKNTVYLHMNSMKPEDTAVYYCAKSYTTPGYYRYDYWGQGTQVTVSS
polyreactivity (PSR sort gate): high polyreactivity

QVQIVESGGGLVQAGGSLRLSCAASGSTFGYYAMGWYRQAPGKERELVAAISWRGGSTYYADSVKGRFTISRDNAKNTVYLQMHILKPEYTAVYYCAAAIFITGYGSYGYWGLGTQVTVSS
polyreactivity (PSR sort gate): low polyreactivity

QVQLVESGGGLVQAGGSLRLSCAASGFIFDIYAMGWYRQAPGKERELVASITWDDGSTYYADSVKGRFTISRDNAKNTVYLQMNRLKPVDTAVYYCAADFEAGGYSLDYWGQGTQVTVSS
polyreactivity (PSR sort gate): low polyreactivity

QVQLVESGGGLVQAGGSLSLSCAASGRTLIRNAMGWYRQAPGKGRELVAAINSGGITNYADSVKGRFTISRDNAKNTVYLQMNSLKPEDTAVYYCNDRQVLYGLYLRAYPYEYWGQGTQVTVSS
polyreactivity (PSR sort gate): low polyreactivity

QVKLHESGGGLVQAGDSQRLSCAASGNIFRFTDMGWSRQAPRKERELVAAINAGSTTYYADSVKGRFTISRDNAKNTVYLQKNSLKPEDTAVYYWAVYYLGSGTFGYWGQGAQVTVSS
polyreactivity (PSR sort gate): high polyreactivity

QVQLEESGGGLVQAGGSLRLSCAASGRTFKINAMGWYRQAPGKERELVAAIRRRGGSTYYADSVKGRFTISRDNAKNTVYLQMNSLKPEDTAVYYCAKTSWPYRVPSDSVAYDYWGQGTQVTVSS
polyreactivity (PSR sort gate): low polyreactivity

QVQLVESGAGLVQAGGSLRLSCAASGSTFDSYVMGWYRQAPGKERDLVAAISRRGGSTYYADSVKGRFTISRDNAKNSVYLQMNSLKPEDTAVYYCARTVGYRTLLESDSWGQGTQVTVSS
polyreactivity (PSR sort gate): high polyreactivity

QVQLVESGGGLVQAGGSLRLSCAAYGRIFNEYAMGWYRQAPGKERELVAAITYSDDSTYYADSVKGRFTISRDNAKNTVYLQMISLKPEDTAVYYRNADTPVWDGHAYPVDYWGQGTQVTVSS
polyreactivity (PSR sort gate): low polyreactivity

QVQLVESGGGLVQAGASLRLSCAASGGIFDLYAMGWYRQAPGKERELVAAITRSGSSTFYADSVKGRFTISRDNAKNTVYLQMNSLKPEDSAVYYCNARYCWYGTYGGDYWGQGTQVTVSS
polyreactivity (PSR sort gate): low polyreactivity

QVQLVESGGGLVQAGGSLRLSCAASGRIFGKYAMGWYRQAPGKERELVAAITRRGGSTYYADSVKGRFTISRDNAKNTVYLQMNSLKPEDTAVYYCNAALTGYRVSPTRHRYDYWGQGTQVTVSS
polyreactivity (PSR sort gate): high polyreactivity

QVQLVESGGGLVQAGGSLRLSCAASGFIFGYYAMGWYRQAPGKERELVAAISGDAGRTYYADSVKGRFTISRDNAKNTVYLQMNSLKPEDTAVYYCAAADTYKMDYWGQGTQVTVSS
polyreactivity (PSR sort gate): low polyreactivity

QVQLVESGGGLVQAGGSLRLSCAASGRIFSYYGMGWYRQAPGKERELVAAITWRGSTTNYADSVKGRFTISRDNAKNTVYLQMNSLKPEDTAVYYCAPLHSAGYAYDYWGQGTQVTVSS
polyreactivity (PSR sort gate): high polyreactivity

QVQLVESGGGLVQAGGSLRLSCAASGRIFTHNAMGWYRQAPGKEREVVAAISYSGVSTYYADSVKGRFTISRDNAKNTVYLQRNSLNTDDTAVYFCARRYWYPDAFYRYDYWGQGTPVTVSS
polyreactivity (PSR sort gate): low polyreactivity

QVQLVESVGGLVQAGGSLRLSCAASGSIFGYYAMGWYRQAPGKDRELVAGINWSGGSTYADSVKGRFTISRDNAKNTVYIQMNSLKPEDTAVYYCNRRYRKDSSAKYDYWGQGTQVTVSS
polyreactivity (PSR sort gate): high polyreactivity

QVQLVESGGGLVQAGGSLRLSCAASGRIFYYNPMGWYRQAPAKERELVAAISWDGGSTYYADSVKGRFTISRDNAKNTFYLEMNCLKAEDTAVYYCAVDLYGTWYPTWFNYWGQGTQVTVSS
polyreactivity (PSR sort gate): low polyreactivity

QVQLGESGGGLVQAGGSLRLSCAASGRIFSYNAMRWYRPAPGKERELVAGITSGGRTYYADSVKGRFTISRDNAKNTVYLQMNSLKPEDTAVYYCAARYVPARTRYYFWGQGSQVTVSS
polyreactivity (PSR sort gate): high polyreactivity
